Results: publication PMC10801861, “Elf1 promotes Rad26’s interaction with lesion-arrested Pol II for transcription-coupled repair” (Proceedings of the National Academy of Sciences of the …, 2024)

B1: Rad26 (wild type) (enzyme, S. cerevisiae)
chain: MEDKEQQDNAKLENNESLKDLGVNVLSQSSLEEKIANDVTNFSNLQSLQQEETRLERSKTALQRYVNKKNHLTRKLNNTTRISVKQNLRDQIKNLQSDDIERVLKDIDDIQSRIKELKEQVDQGAENKGSKEGLQRPGETEKEFLIRTGKITAFGHKAGFSLDTANREYAKNDEQKDEDFEMATEQMVENLTDEDDNLSDQDYQMSGKESEDDEEEENDDKILKELEDLRFRGQPGEAKDDGDELYYQERLKKWVKQRSCGSQRSSDLPEWRRPHPNIPDAKLNSQFKIPGEIYSLLFNYQKTCVQWLYELYQQNCGGIIGDEMGLGKTIQVIAFIAALHHSGLLTGPVLIVCPATVMKQWCNEFQHWWPPLRTVILHSMGSGMASDQKFKMDENDLENLIMNSKPSDFSYEDWKNSTRTKKALESSYHLDKLIDKVVTDGHILITTYVGLRIHSDKLLKVKWQYAVLDEGHKIRNPDSEISLTCKKLKTHNRIILSGTPIQNNLTELWSLFDFIFPGKLGTLPVFQQQFVIPINIGGYANATNIQVQTGYKCAVALRDLISPYLLRRVKADVAKDLPQKKEMVLFCKLTKYQRSKYLEFLHSSDLNQIQNGKRNVLFGIDILRKICNHPDLLDRDTKRHNPDYGDPKRSGKMQVVKQLLLLWHKQGYKALLFTQSRQMLDILEEFISTKDPDLSHLNYLRMDGTTNIKGRQSLVDRFNNESFDVFLLTTRVGGLGVNLTGANRIIIFDPDWNPSTDMQARERAWRIGQKREVSIYRLMVGGSIEEKIYHRQIFKQFLTNRILTDPKQKRFFKIHELHDLFSLGGENGYSTEELNEEVQKHTENLKNSKSEESDDFEQLVNLSGVSKLESFYNGKEKKENSKTEDDRLIEGLLGGESNLETVMSHDSVVNSHAGSSSSNIITKEASRVAIEAVNALRKSRKKITKQYEIGTPTWTGRFGKAGKIRKRDPLKNKLTGSAAILGNITKSQKEASKEARQENYDDGITFARSKEINSNTKTLENIRAYLQKQNNFFSSSVSILNSIGVSLSDKEDVIKVRALLKTIAQFDKERKGWVLDEEFRNNNAS
notes: Rad26, S. cerevisiae ortholog of human CSB, Swi2/Snf2 family ATPase; also called Rad26(WT); yeast ortholog of CSB; source: E. coli Rosetta 2(DE3), purified (Ni-NTA agarose, Hi-Trap Heparin HP, Superdex 200)

Tests used:
[1] = target: T1, Rpb1 subunit of S. cerevisiae RNA polymerase II (S. cerevisiae, UniProt P04050 1-1733); assay: cryo-EM structure; Pol II(CPD)-Rad26 with 10-subunit Pol II lacking Rpb4/7, CPD lesion scaffold; 4.7 A; conditions: both partners purified
T1 construct: Rpb1, largest subunit of S. cerevisiae RNA polymerase II, within the assembled polymerase; Seen only as a subunit of Pol II in the structures
T1 sequence (P04050 whole entry): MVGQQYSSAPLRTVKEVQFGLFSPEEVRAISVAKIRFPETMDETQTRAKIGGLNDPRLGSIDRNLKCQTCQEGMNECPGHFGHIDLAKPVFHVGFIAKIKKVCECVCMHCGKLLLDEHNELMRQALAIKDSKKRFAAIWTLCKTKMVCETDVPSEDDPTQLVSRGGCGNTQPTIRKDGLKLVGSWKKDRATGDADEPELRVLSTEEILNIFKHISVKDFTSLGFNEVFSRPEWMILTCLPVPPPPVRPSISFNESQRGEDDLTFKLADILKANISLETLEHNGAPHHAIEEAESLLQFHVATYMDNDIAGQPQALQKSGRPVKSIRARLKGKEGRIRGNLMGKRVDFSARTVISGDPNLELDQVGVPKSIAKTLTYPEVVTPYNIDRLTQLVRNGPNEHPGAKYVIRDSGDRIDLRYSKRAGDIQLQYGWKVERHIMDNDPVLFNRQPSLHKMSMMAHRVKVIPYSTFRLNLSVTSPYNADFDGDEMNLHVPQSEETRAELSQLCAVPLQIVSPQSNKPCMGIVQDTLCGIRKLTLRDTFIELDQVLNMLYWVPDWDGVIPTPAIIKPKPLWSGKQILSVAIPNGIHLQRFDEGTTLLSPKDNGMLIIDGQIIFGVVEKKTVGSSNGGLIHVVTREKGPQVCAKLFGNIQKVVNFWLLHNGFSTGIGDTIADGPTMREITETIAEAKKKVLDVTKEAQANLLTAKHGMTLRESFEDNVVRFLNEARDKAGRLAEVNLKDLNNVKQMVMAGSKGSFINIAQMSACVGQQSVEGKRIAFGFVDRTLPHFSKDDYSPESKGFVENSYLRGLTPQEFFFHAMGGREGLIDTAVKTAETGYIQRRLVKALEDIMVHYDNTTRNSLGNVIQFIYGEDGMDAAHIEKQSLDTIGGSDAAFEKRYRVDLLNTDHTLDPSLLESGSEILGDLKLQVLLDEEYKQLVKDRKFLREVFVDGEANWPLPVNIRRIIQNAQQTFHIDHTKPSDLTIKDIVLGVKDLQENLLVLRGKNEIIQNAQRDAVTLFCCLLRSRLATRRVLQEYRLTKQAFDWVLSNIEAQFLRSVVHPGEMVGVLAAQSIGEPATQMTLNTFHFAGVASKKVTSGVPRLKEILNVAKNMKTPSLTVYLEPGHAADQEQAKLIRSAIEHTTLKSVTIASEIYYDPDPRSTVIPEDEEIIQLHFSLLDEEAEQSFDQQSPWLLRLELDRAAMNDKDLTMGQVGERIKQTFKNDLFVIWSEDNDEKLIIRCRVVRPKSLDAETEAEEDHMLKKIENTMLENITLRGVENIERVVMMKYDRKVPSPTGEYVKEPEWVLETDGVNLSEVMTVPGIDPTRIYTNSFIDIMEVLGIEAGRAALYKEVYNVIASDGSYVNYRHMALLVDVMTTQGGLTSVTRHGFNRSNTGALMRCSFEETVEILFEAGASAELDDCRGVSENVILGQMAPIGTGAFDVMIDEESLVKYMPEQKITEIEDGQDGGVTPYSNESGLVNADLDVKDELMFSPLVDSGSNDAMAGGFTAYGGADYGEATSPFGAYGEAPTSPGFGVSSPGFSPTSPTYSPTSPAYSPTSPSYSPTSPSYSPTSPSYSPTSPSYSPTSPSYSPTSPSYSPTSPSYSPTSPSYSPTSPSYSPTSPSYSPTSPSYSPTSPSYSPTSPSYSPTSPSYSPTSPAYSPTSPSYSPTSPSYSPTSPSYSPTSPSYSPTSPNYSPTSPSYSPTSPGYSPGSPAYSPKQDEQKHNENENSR

[2] = target: T2, Rpb2 subunit of S. cerevisiae RNA polymerase II (S. cerevisiae, UniProt P08518 1-1224); assay: as above; conditions: both partners purified
T2 construct: Rpb2, second largest subunit of S. cerevisiae RNA polymerase II, within the assembled polymerase; Seen only as a subunit of Pol II in the structures
T2 sequence (P08518 whole entry): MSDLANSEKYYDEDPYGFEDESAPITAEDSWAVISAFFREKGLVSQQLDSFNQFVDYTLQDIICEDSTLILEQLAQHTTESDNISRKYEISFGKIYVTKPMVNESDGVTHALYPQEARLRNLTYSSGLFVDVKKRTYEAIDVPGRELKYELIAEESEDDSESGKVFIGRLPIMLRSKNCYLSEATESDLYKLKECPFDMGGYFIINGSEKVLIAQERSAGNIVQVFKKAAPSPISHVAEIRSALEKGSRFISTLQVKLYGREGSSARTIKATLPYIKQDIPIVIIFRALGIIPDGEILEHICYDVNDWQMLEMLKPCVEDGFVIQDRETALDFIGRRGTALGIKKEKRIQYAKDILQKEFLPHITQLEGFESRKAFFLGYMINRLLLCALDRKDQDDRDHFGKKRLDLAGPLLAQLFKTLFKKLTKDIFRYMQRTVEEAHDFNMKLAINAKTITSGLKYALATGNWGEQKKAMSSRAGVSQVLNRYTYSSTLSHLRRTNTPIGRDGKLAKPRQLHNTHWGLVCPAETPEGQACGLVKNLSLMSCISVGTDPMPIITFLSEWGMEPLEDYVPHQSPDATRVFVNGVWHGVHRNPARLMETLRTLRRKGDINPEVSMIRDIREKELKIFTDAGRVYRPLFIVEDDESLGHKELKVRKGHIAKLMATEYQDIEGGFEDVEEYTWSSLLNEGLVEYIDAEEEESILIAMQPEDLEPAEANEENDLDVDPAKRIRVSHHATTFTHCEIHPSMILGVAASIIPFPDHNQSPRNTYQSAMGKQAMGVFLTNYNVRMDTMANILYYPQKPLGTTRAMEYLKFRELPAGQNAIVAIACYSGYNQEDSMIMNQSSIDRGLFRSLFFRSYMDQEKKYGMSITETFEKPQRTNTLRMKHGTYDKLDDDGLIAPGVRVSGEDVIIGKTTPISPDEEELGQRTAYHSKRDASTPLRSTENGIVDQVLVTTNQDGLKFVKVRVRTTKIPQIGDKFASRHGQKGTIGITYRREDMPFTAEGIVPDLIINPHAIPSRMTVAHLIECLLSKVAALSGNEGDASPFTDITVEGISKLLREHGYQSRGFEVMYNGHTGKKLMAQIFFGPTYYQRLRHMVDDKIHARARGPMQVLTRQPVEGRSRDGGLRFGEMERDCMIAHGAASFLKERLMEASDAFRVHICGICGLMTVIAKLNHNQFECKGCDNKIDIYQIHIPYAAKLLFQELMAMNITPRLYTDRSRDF

[3] = target: S. cerevisiae 12-subunit RNA polymerase II (S. cerevisiae) (UniProt P04050); assay: mass photometry; 12-subunit CPD-arrested Pol II complex (EC, on DNA/RNA scaffold) mixed with an equimolar amount of Rad26, diluted to 5, 10, 15 and 25 nM, incubated 20 min; no Elf1; Kd from particle counts, 12 reads
[4] = target: S. cerevisiae 12-subunit RNA polymerase II (S. cerevisiae) (UniProt P04050); assay: mass photometry; 12-subunit CPD-arrested Pol II complex (EC, on DNA/RNA scaffold) mixed with an equimolar amount of Rad26, diluted to 2, 5, 15 and 20 nM, with additional Elf1 (final 500 nM), incubated 20 min; Kd from particle counts, 12 reads
Rad26 (wild type) = target: B1; assay: cryo-EM structure; Pol II(CPD)-Rad26-Elf1 (Closed state): Elf1 incubated with the Pol II(CPD)-Rad26 complex; 1 uM Pol II, 2 uM Rad26, 1.1 uM scaffold, 5 uM Elf1; 3.1 A; conditions: both partners purified

Row | binding result [1] | binding result [2] | Kd [3] [nM] | Kd [4] [nM] | binding result (Rad26 (wild type)) | Binder
1 | binds | binds | 23 | 9 | – | B1
2 | – | – | – | – | binds | Rpb4/7 heterodimer of S. cerevisiae RNA polymerase II (complex, Rpb4 subunit of S. cerevisiae RNA polymerase II; Rpb7 subunit of S. cerevisiae RNA polymerase II; In the structures it stood assembled into 12-subunit Pol II; also called Pol II stalk) chain 1: MNVSTSTFQTRRRRLKKVEEEENAATLQLGQEFQLKQINHQGEEEELIALNLSEARLVIKEALVERRRAFKRSQKKHKKKHLKHENANDETTAVEDEDDDLDEDDVNADDDDFMHSETREKELESIDVLLEQTTGGNNKDLKNTMQYLTNFSRFRDQETVGAVIQLLKSTGLHPFEVAQLGSLACDTADEAKTLIPSLNNKISDDELERILKELSNLETLY chain 2: MFFIKDLSLNITLHPSFFGPRMKQYLKTKLLEEVEGSCTGKFGYILCVLDYDNIDIQRGRILPTDGSAEFNVKYRAVVFKPFKGEVVDGTVVSCSQHGFEVQVGPMKVFVTKHLMPQDLTFNAGSNPPSYQSSEDVITIKSRIRVKIEGCISQVSSIHAIGSIKEDYLGAI
